Measured values: the supplement of paper PMC12667976
± gives the standard error.

B1: library; numbered along this chain (parent)
chain: MATDAALRRLLRLHRTEIAVAVDSAFPLLHALADHDVVPEDKFQETLHLKEKEGCPQAFHALLSWLLTQDSTAILDFWRVLFKDYNLERYGRLQPILDSFPKDVDLSQPRKGRKPPAVPKALVPPPRLPTKRKASEEARAAAPAALTPRGTASPGSQLKAKPPKKPESSAEQQRLPLGNGIQTMSASVQRAVAMSSGDVPGARGAVEGILIQQVFESGGSKKCIQVGGEFYTPSKFEDSGSGKNKARSSSGPKPLVRAKGAQGAAPGGGEARLGQQGSVPAPLALPSDPQLHQKNEDECAVCRDGGELICCDGCPRAFHLACLSPPLREIPSGTWRCSSCLQATVQEVQPRAEEPRPQEPPVETPLPPGLRSAGEEVRGPPGEPLAGMDTTLVYKHLPAPPSAAPLPGLDSSALHPLLCVGPEGQQNLAPGARCGVCGDGTDVLRCTHCAAAFHWRCHFPAGTSRPGTGLRCRSCSGDVTPAPVEGVLAPSPARLAPGPAKDDTASHEPALHRDDLESLLSEHTFDGILQWAIQSMARPAAPFPS

Variants of: B1
Experiment: AIRE transcriptional activation functional score (insulin promoter-GFP; nonsense median 0, synonymous median 1) (normalised score); higher = higher AIRE activity (more reporter activation)
Conditions: with insulin promoter-GFP reporter in HEK293
Experimental: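 Deep mutational scan of full-length human AIRE (codon-optimized cDNA, DT-POPCode NNN libraries over three regions) integrated at a Bxb1 landing pad in HEK293 cells carrying an insulin core promoter-GFP reporter at a Flp-In site. Cells were sorted for the top 10% GFP about 14 days after transfection. Variant frequency log-ratios (select vs non-select, TileSeq) were rescaled so that the nonsense median is 0 and the synonymous median is 1, then averaged over biological replicates.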

Row | Variant | AIRE transcriptional activation functional score
1 | D526C | -0.576 ± 0.2
2 | L519C | 0.313 ± 0.18
3 | I309V | 1.14 ± 0.24
4 | L62H | -0.594 ± 0.34
5 | F453D | 0.307 ± 0.1
6 | P398H | 1.24 ± 0.26
7 | A352V | 0.882 ± 0.31
8 | A496D | 0.267 ± 0.14
9 | A6R | 0.648 ± 0.17
10 | A6D | 1.01 ± 1.3
11 | L470T | 0.558 ± 0.33
12 | L470H | 0.541 ± 0.12
13 | V123I | 1.17 ± 0.21
14 | V123H | 1.19 ± 0.59
15 | G269Q | 0.849 ± 0.18
16 | G382E | 1.19 ± 0.15
17 | E17V | 0.0123 ± 0.26
18 | H14Y | 0.888 ± 0.31
19 | D502I | 1.02 ± 0.19
20 | L13N | -0.209 ± 0.12
21 | A489G | 0.932 ± 0.37

Row | Variant | AIRE transcriptional activation functional score
22 | A489T | 1.44 ± 0.15
23 | K165D | 0.206 ± 0.069
24 | K165S | 0.597 ± 0.56
25 | R127M | 1.1 ± 0.049
26 | S64H | 0.583 ± 0.12
27 | A537P | 0.545 ± 0.38
28 | A537T | 1.41 ± 0.19
29 | Q530F | -0.0468 ± 0.091
30 | Q530Y | 0.438 ± 0.036
31 | N86D | -1.05 ± 0.28
32 | Q157V | 0.829 ± 0.34
33 | Q157L | 1.26 ± 0.39
34 | C310T | 0.959 ± 0.44
35 | T232F | -0.0868 ± 0.094
36 | M184N | 0.0346 ± 0.28
37 | Y231N | 0.775 ± 0.13
38 | Y231F | 1.05 ± 0.094
39 | Q173N | 1.68 ± 0.1
40 | V38M | 0.387 ± 0.074
41 | E45I | -1.78 ± 0.28
42 | C340D | 1.7 ± 0.12

Row | Variant | AIRE transcriptional activation functional score
43 | C340G | 1.44 ± 0.13
44 | G527S | 0.639 ± 0.18
45 | R92G | 0.724 ± 0.54
46 | R92T | -0.129 ± 0.97
47 | S185Y | 0.264 ± 0.11
48 | V188Y | 1.56 ± 0.16
49 | L520S | -0.11 ± 0.097
50 | A300R | 1.14 ± 0.34
51 | V487I | 1.06 ± 0.14
52 | I74R | -0.00714 ± 0.54
53 | Q426C | 1.4 ± 0.044
54 | K501A | 0.451 ± 0.07
55 | G477A | 0.739 ± 0.25
56 | V345P | 1.06 ± 0.22
57 | S196H | 1.01 ± 0.3
58 | S196L | 0.512 ± 0.15
59 | G240T | 1.47 ± 0.067
60 | G240Y | -0.451 ± 0.065
61 | G240E | 0.406 ± 0.48
62 | A2G | 0.545 ± 0.1
63 | A284Y | 1.32 ± 0.18

Row | Variant | AIRE transcriptional activation functional score
64 | P162C | 1.41 ± 0.097
65 | G178N | 0.294 ± 0.24
66 | G178S | 1.26 ± 0.51
67 | S332D | 0.652 ± 0.32
68 | S332C | 0.951 ± 0.11
69 | T364E | 0.981 ± 0.17
70 | S135H | 1.48 ± 0.27
71 | D76N | -0.077 ± 0.96
72 | D76L | 0.535 ± 0.84
73 | A264H | 1.68 ± 0.053
74 | D70C | 0.296 ± 0.14
75 | D70Q | 0.436 ± 0.49
76 | L93F | 0.229 ± 0.059
77 | A317W | 1.53 ± 0.049
78 | P492A | 0.732 ± 0.5
79 | E51A | 0.128 ± 0.27
80 | Q342M | 1.09 ± 0.031
81 | Q342I | 1 ± 0.22
82 | L10W | -0.175 ± 0.14
83 | L392V | 1.36 ± 0.28
84 | G263F | 0.212 ± 0.052
